The values that follow come from article PMC11994318, “In vitro characterization of the yeast DEAH/RHA RNA helicase Dhr1” (The Journal of Biological Chemistry, 2025).

One data set addresses T1, ΔN-Dhr1-WT (Saccharomyces cerevisiae, UniProt Q04217 376-1267).
T1 sequence: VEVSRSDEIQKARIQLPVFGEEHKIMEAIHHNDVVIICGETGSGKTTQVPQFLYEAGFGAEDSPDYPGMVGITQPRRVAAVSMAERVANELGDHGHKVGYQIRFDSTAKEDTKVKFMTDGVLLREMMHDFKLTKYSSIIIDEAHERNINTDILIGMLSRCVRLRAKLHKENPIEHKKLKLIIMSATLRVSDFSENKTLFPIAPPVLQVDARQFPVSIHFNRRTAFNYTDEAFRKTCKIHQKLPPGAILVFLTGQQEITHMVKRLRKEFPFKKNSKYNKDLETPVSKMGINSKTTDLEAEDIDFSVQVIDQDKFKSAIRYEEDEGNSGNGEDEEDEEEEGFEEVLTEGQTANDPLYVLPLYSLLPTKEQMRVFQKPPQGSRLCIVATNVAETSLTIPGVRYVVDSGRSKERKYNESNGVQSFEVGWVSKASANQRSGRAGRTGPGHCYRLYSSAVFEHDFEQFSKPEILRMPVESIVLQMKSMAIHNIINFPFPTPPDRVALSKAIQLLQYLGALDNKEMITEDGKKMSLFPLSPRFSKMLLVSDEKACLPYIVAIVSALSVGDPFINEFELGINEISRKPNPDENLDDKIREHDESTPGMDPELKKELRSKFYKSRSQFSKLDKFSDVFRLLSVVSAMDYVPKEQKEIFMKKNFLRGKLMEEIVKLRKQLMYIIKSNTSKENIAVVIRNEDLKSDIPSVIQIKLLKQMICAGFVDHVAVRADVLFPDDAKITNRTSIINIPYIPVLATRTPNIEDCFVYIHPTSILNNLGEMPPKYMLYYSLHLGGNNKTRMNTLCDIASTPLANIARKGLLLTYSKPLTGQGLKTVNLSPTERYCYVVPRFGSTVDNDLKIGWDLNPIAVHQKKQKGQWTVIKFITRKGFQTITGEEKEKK
Nature of the data set: fluorescence polarization; no nucleotide; 10 mM Mg2+; 40 mM Tris-HCl pH 8.0, 40 mM KCl, 150 mM NaCl, 2 mM NaOAc, 2 mM DTT, 10 mM MgCl2, 4% glycerol, 0.05% Tween 20, 25 °C, 10 min; 1.25 nM RNA, 0.625 nM-20 µM protein. To be noted: protein: recombinant; tags: C-terminal His6 (pET21a); label: 5' 6-FAM; single strand. In general terms: In fluorescence polarisation assays a small probe gives low polarisation when free and higher when bound to something large.

Another data set concerns the target T2, ΔN-Dhr1-ΔSKTTD (Saccharomyces cerevisiae, UniProt Q04217 376-665+671-1267, internal_change).
T2 sequence: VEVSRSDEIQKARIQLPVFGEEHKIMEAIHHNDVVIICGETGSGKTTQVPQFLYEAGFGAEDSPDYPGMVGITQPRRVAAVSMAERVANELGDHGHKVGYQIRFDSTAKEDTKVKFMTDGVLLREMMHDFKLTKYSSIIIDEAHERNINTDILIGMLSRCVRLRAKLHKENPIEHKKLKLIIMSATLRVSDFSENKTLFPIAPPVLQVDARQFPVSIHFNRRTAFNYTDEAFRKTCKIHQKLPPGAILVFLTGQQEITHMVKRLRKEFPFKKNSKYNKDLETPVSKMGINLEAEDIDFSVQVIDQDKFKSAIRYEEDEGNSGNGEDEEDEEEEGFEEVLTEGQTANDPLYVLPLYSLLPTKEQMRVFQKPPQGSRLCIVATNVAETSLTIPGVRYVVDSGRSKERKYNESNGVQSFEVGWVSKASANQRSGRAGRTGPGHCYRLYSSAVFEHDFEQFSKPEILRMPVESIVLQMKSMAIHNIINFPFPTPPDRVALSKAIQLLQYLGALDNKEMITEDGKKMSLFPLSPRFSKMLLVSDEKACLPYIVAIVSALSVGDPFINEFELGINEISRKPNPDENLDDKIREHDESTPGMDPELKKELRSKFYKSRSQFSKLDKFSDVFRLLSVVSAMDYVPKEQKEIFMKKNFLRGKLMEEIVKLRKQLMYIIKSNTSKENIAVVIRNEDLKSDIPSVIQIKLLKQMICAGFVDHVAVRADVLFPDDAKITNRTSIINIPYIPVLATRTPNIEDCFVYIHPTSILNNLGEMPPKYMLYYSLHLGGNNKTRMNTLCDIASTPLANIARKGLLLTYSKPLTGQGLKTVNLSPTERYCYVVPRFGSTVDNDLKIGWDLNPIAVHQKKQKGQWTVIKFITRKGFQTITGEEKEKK
The description is as above. The settings on record: protein: recombinant; tags: C-terminal His6 (pET21a); label: 5' 6-FAM; single strand.

In the case of UUUUUUUUUUUUUUUUUUUU (ssRNA) [U20], the Kd – broadly, the concentration at which binding is half-saturated – with ΔN-Dhr1-WT came out at 300 ± 20 nM; with ΔN-Dhr1-ΔSKTTD, 60 ± 10 nM.
